# In publication PMC11742849:
# Biological target: recombinant mouse TfR extracellular domain protein (UniProt Q62351)
# Assay: ELISA
# Details: ligand concentration 20 nM (est. from x axis); mTfR coated on plate; signal normalized to each construct's own maximum; parent: est. 78; read off a plot
# Sequence of UniProt Q62351 (Q62351 89-763): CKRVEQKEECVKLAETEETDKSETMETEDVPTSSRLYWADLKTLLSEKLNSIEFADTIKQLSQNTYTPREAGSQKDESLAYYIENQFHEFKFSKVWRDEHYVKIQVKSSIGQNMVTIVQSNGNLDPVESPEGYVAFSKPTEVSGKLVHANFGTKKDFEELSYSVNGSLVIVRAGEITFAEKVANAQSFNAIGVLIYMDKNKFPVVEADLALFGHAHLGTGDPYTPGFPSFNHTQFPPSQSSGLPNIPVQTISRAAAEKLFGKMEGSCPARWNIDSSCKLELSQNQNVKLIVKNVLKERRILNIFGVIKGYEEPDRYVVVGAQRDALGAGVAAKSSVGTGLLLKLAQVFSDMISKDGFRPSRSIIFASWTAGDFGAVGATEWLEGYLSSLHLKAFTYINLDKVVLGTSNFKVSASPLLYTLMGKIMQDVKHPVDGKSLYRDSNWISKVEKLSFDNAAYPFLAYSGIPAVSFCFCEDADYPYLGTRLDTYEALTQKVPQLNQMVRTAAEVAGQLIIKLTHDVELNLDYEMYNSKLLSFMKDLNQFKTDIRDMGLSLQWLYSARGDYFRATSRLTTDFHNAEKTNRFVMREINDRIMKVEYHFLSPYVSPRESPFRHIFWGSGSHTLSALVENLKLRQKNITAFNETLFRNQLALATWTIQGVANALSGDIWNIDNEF
row,response (% of own maximum OD450),Substance
1,24,scFc-scFv8D3 Y103F
2,17,scFc-scFv8D3 H102A
3,26,scFc-scFv8D3 T100V
4,39,scFc-scFv8D3 S101A
